Consider two substances from PMC4826039.

In this assay the target is bovine brain tubulin (alpha-beta heterodimer), polymerized into taxol-stabilized microtubules (bovine) (UniProt Q6B856). Nature of the assay: negative stain electron microscopy.

Turning to “KLP10A MD K350A (from UniProt Q960Z0 279-615) (domain or fragment)”, the percent of microtubules with rings is less than 10%. Substance “KLP10A MD K399A (from UniProt Q960Z0 279-615) (domain or fragment)” registered a percent of microtubules with rings of less than 10%.
